Assay results published in patent publication US12478674 (dated 2025).
Numbering of substitutions follows the chain as printed. Values joined by “and” are separate entries in the source; they are usually repeats but may differ in a detail not shown here. Equal values may be shown once.

B1: ipilimumab (ipi) Fab (antibody, V domains shown)
VH: QVQLVESGGGVVQPGRSLRLSCAASGFTFSSYTMHWVRQAPGKGLEWVTFISYDGNNKYYADSVKGRFTISRDNSKNTLYLQMNSLRAEDTAIYYCARTGWLGPFDYWGQGTLVTVSS
VL: not shown
B2: ipi.64 Fab (antibody, V domains shown)
VH: B1 VH with S31H
VL: not shown
B3: ipi.64 IgG1 (antibody, V domains shown)
VH: B1 VH with S31H
VL: not shown
B4: ipilimumab IgG1 (antibody, V domains shown)
VH: B1 VH
VL: not shown
B5: ipi.106 IgG1 (antibody, V domains shown)
VH: B1 VH with S31H, N56H, T99H
VL: EIVLTQSPGTLSLSPGERATLSCRASQEVGESELAWYQQKPGQAPRLLIYGAFSRATGIPDRFSGSGSGTDFTLTISRLEPEDFAVYYCQQYGSSPWTFGQGTKVEIKR
B6: ipi.100 IgG1 (antibody, V domains shown)
VH: B1 VH with S31H
VL: not shown
B7: ipi.101 IgG1 (antibody, V domains shown)
VH: B1 VH with S31H, N56H
VL: not shown
B8: ipi.105 IgG1 (antibody, V domains shown)
VH: B1 VH with S31H, N56H
VL: B5 VL

Legend:
human CTLA-4 [1] = molecular target: human CTLA-4 (human); assay: SPR, pH 6.0, 37C
human CTLA-4 [2] = molecular target: human CTLA-4 (human); assay: SPR, pH 7.4, 37C
human CTLA-4 [3] = molecular target: human CTLA-4 (human); assay: SPR, pH 7.4, 37C; remark: listed apart in the source
human CTLA-4 [4] = molecular target: human CTLA-4 (human); assay: FACS, pH 6.0
human CTLA-4 [5] = molecular target: human CTLA-4 (human); assay: SPR, pH 6.0, 37C; remark: listed apart in the source
human CTLA-4 [6] = molecular target: human CTLA-4 (human); assay: FACS, pH 7.3
human CTLA-4 [7] = molecular target: human CTLA-4 (human); assay: SPR, pH 6.0, 37C; remark: listed apart in the source
human CTLA-4 [8] = molecular target: human CTLA-4 (human); assay: SPR, pH 7.4, 37C; remark: listed apart in the source
human CTLA-4 [9] = molecular target: human CTLA-4 (human); assay: FACS, pH 7.2, bivalent
human CTLA-4 [10] = molecular target: human CTLA-4 (human); assay: FACS, pH 6.2, bivalent
human CTLA-4 [11] = molecular target: human CTLA-4 (human); assay: FACS, pH 6.7, bivalent

Chain of human CTLA-4 (human) (chain, as listed by the source): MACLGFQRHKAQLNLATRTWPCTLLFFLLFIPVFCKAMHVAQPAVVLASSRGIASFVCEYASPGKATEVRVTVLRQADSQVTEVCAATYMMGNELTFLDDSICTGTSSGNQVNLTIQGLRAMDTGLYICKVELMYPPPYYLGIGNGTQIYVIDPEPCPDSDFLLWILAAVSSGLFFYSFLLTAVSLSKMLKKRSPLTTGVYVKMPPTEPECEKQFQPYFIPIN

Row | Binder | EC50 (human CTLA-4 [9]) [nM] | EC50 (human CTLA-4 [10]) [nM] | EC50 (human CTLA-4 [11]) [nM] | other results
1 | B1 | – | – | – | Kd (human CTLA-4 [1]): 21 nM; Kd (human CTLA-4 [2]): 47 nM; Kd (human CTLA-4 [3]): 22 nM; EC50 (human CTLA-4 [4]): 7.1 nM; Kd (human CTLA-4 [5]): 21 nM; EC50 (human CTLA-4 [6]): 5.4 nM; Kd (human CTLA-4 [7]): 46 nM; Kd (human CTLA-4 [8]): 22 nM and 14 nM
2 | B2 | – | – | – | EC50 (human CTLA-4 [4]): 3.3 nM; EC50 (human CTLA-4 [6]): 140 nM
3 | B3 | 3.1 | 2.93 | 2.97 | –
4 | B4 | 1.84 | 2.76 | 2.35 | –
5 | B5 | 11.5 | 3.15 | 4.37 | –
6 | B6 | 2.8 | 2.94 | 2.85 | –
7 | B7 | 3.81 | 3.52 | 4.06 | –
8 | B8 | 3.94 | 2.6 | 3.45 | –
